This passage reports Kd results from the Immune Epitope Database (IEDB).

For this assay, the target named is HLA-A*02:01. Briefly: IEDB peptide-MHC binding, purified MHC/competitive/radioactivity; filed as Kd, often an IC50 or EC50 that approximates it; ≥ and ≤ were set here for values at or beyond the usual limits of such assays. Conditions: source organism: Mycobacterium tuberculosis.
On to LLFRFMRPLI, for which the Kd (usually the free concentration of one partner at which half of the binding sites on the other are occupied at equilibrium, for simple one-to-one binding) stood at 0.0833 µM.

Take GLYGAQYDV: the Kd worked out at 0.25 µM.

As for GLGGLGLFFA, the Kd was found to be 0.0892 µM.

Take MLATDLSLRV: the Kd stood at 0.109 µM.

As to AVHDTLFYCV, the Kd is 0.104 µM.

As for ILSSLGLPV, the Kd is 0.05 µM.

On to LLAAGVADPV, for which the Kd was found to be 0.217 µM.

Take GLMTAVYLV: the Kd was found to be 0.0089 µM.

As for TVLRFVPPL, the Kd came out at 0.0769 µM.

On to GLFLTTEAVV, for which the Kd is 0.238 µM.

With LLLETSWEAI, the Kd was 0.106 µM.

For AMKADIQHV, the equilibrium dissociation constant (Kd) came to 0.167 µM.

GLVDFVKHI: the Kd is 0.217 µM.

Regarding GLYRQWALA, the Kd came to 0.185 µM.

As to ALVLLMLPVV, the Kd was determined as 0.0068 µM.

Turning to VLLLDVTPL, the Kd stood at 0.05 µM.

Turning to RLQPQVGWEV, the Kd was 0.178 µM.

Turning to SLYFGGICV, the Kd is 0.0106 µM.

With WLLIDTSNA, the equilibrium dissociation constant (Kd) came out at 0.357 µM.

For AMALLRLPLV, the Kd turned out to be 0.0051 µM.

For the sequence FLLADERVRV, the dissociation constant (Kd) turned out to be 0.116 µM.

As for GLYYLTTEV, the Kd amounted to 0.0208 µM.

For the sequence WMAETTLGRV, the Kd came out at 0.294 µM.

Consider FLTCDANLAV, for which the Kd is 0.104 µM.

For the sequence SLYFGGICVI, the Kd is 0.167 µM.

As to YLYVHSPAL, the Kd worked out at 0.0054 µM.

In the case of YLSEGDMAA, the equilibrium dissociation constant (Kd) was 0.294 µM.

As to VLLEDGGVEV, the Kd came to 0.333 µM.

On to LLFRFMRPL, for which the Kd is 0.0357 µM.

Regarding ILLSIARVV, the Kd is 0.455 µM.

As to MTYAAPLFV, the Kd came to 0.0138 µM.

In the case of FLMPVEDVFI, the Kd turned out to be 0.0033 µM.

For ALLSDWLPA, the Kd was found to be 0.0943 µM.

As to FMSLAGFVRM, the Kd turned out to be 0.116 µM.

Take AMLQDMAIL: the Kd is 0.098 µM.

Consider YLSQIAVLL, for which the Kd worked out at 0.0121 µM.

For MALLRLPLV, the Kd amounted to 0.0526 µM.

With SLAGFVRML, the Kd amounted to 0.111 µM.

GLAGTVLRFV: the Kd was found to be 0.109 µM.

Regarding LALVLLMLPV, the Kd amounted to 0.333 µM.

As to RMPAVTDLV, the Kd was 0.125 µM.

Take LLACAVIHA: the equilibrium dissociation constant (Kd) was determined as 0.25 µM.

RLMIGTAAA: the Kd was determined as 0.227 µM.

LLLDVTPLSL: the Kd came to 0.017 µM.

Take KLTADGVLTA: the Kd came out at 0.2 µM.

In the case of LLATVFKLTA, the Kd was 0.25 µM.

With KIFMLVTAVV, the dissociation constant Kd worked out at 0.417 µM.

For AIAWGAWGEV, the Kd turned out to be 0.312 µM.

For the sequence FVVALIPLV, the equilibrium dissociation constant (Kd) is 0.0076 µM.

GIVSGILLSI: the Kd was 0.151 µM.

Take YLLALRYLA: the equilibrium dissociation constant (Kd) was 0.01 µM.

Turning to RLLDDTPEV, the Kd was 0.0961 µM.

As to RIANGMGATV, the Kd stood at 0.385 µM.

Regarding MLASTLTDA, the Kd was found to be 0.25 µM.

For the sequence ATYDKGILTV, the Kd amounted to 0.156 µM.

SLLEIGEGV: the Kd turned out to be 0.098 µM.

As to LLWQDPVPA, the Kd turned out to be 0.0454 µM.

With AIYHPQQFV, the Kd was found to be 0.313 µM.

MLQDMAILT: the dissociation constant Kd amounted to 0.167 µM.

Take SLLEIGEGVV: the dissociation constant Kd was determined as 0.05 µM.

LLFLGVVFL: the Kd turned out to be 0.05 µM.

Turning to LLGSFELTGI, the Kd is 0.026 µM.

As for RMSRVTTFTV, the Kd turned out to be 0.0755 µM.

Regarding YTYKWETFL, the Kd came to 0.029 µM.

For MLGNAPSVV, the Kd came to 0.227 µM.

For the sequence FLLPDAQSI, the Kd was 0.385 µM.

Turning to LMLPGMNGI, the Kd was 0.238 µM.

As to LMIGTAAAVV, the Kd was found to be 0.054 µM.

Take LLPLGYPFV: the dissociation constant (Kd) came to 0.333 µM.

Turning to ALYLLDGLRA, the Kd was found to be 0.263 µM.

With LLCCSGVATA, the Kd is 0.151 µM.
